Assays:
[1] = test system: C[C@@H](O)[C@H]1C(=O)N2C(C(=O)O)=C(SCCN=CN)C[C@H]12; assay: purified protein; conditions: 50 mM HEPES, pH 7.5, 150 mM NaCl, 10 μM ZnCl2, 37 °C
[2] = test system: C[C@@H](O)[C@H]1C(=O)N2C(C(=O)O)=C(S[C@@H]3CN[C@H](C(=O)N(C)C)C3)[C@H](C)[C@H]12; assay: purified protein; conditions: 50 mM HEPES, pH 7.5, 150 mM NaCl, 10 μM ZnCl2, 37 °C
[3] = test system: CC(=O)OCC1=C(C(=O)O)N2C(=O)[C@@H](NC(=O)Cc3cccs3)[C@H]2SC1; assay: purified protein; conditions: 50 mM HEPES, pH 7.5, 150 mM NaCl, 10 μM ZnCl2, 37 °C
SPS-1 = SPS-1 (Sediminispirochaeta smaragdinae, UniProt E1R245); conditions: read-out: SPS-1 / Km; 50 mM HEPES, pH 7.5, 150 mM NaCl, 10 μM ZnCl2, 37 °C
Chain of SPS-1 (E1R245 32-276 limits assumed): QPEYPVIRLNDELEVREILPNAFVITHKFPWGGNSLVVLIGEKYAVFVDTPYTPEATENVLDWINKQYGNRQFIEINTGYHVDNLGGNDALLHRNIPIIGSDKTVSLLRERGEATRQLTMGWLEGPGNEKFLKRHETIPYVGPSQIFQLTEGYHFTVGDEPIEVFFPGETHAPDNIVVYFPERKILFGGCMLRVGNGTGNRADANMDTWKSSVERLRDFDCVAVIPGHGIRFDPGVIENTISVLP

Substance | Km [1] [µM] | kcat [1] [s⁻¹] | kcat/Km [1] [M⁻¹ s⁻¹] | Km [2] [µM] | kcat [2] [s⁻¹] | kcat/Km [2] [M⁻¹ s⁻¹] | Km [3] [µM] | kcat [3] [s⁻¹] | kcat/Km [3] [M⁻¹ s⁻¹] | Km (SPS-1) [µM]
SPS-1 (Sediminispirochaeta smaragdinae DSM 11293) | 290 ± 50 | 470 ± 60 | 1.63e+06 | 170 ± 30 | 520 ± 50 | 3e+06 | 110 ± 20 | 3.1 ± 0.1 | 27000 | 
chromacef |  |  |  |  |  |  |  |  |  | 120 ± 9

From article PMC6314204 (Biochemistry, 2018)
